Laboratory results taken from US20240207432A1 (BIOSION, published 2024).
Like-named read-outs stand apart in the source and are kept apart here.

Tests used:
human TROP2-his protein [1] = biological target: T1, human TROP2-his protein (human, UniProt P09758 27-274); assay: capture ELISA, captured antibody, biotin human TROP2-his in solution, OD(450-630)
T1 construct: Biotin-labelled in the ELISAs, unlabelled analyte in Biacore; also called biotin-labeled human TROP2-his protein; biotin human Trop2-his
T1 sequence: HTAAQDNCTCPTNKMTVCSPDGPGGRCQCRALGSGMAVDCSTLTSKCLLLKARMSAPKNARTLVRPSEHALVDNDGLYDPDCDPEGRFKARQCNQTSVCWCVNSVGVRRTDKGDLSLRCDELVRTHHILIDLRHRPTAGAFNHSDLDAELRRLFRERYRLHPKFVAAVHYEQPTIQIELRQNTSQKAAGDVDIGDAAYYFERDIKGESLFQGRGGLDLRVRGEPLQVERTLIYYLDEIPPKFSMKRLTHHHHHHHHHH

human TROP2-his protein [2] = biological target: T1, human TROP2-his protein; assay: competitive ELISA: mouse A1H3C5H8E12 coated at 2 ug/mL, antibody premixed with biotin human TROP2-his; blocked: binding of TROP2-his to coated A1H3C5H8E12 (self-competition); no lower plateau reached at 80 nM
Method: (§1) The mouse anti-TROP2 antibodies were tested for epitope binding in a competitive ELISA assay. […] ELISA plates were washed once with wash buffer (PBS+0.05% v/v Tween-20, PBST) and then blocked with 200 μl blocking buffer (5% w/v non-fatty milk in PBST) for 2 hours at 37° C. While blocking, the anti-TROP2 antibodies or controls were diluted with biotin labeled human TROP2-his protein (SEQ ID NO: 67, 34 ng/mL in 2.5% wA non-fatty milk in PBST), starting at 80 nM with a 5-fold serial dilution, and incubated at room temperature for 40 minutes. After plate washing for 4 times, the antibody/TROP2-his protein mixtures were added to the antibody coated plates, 100 μl per well. After incubation at 37° C. for 40 minutes, plates were washed 4 times again using wash buffer. Then the plates were added and incubated with 100 μl Peroxidase Streptavidin (1:10000 dilution in PBST buffer. Jackson Immunoresearch, Cat #016-030-084) for 40 minutes at 37° C. Plates were washed again using wash buffer. Finally, TMB was added and the reaction was stopped using 1M H₂SO₄. The absorbance of each well was read on a microplate reader using dual wavelength mode with 450 nm for TMB and 630 nm as the reference wavelength, and the OD (450-630) values were plotted against antibody concentration. Data was analyzed using Graphpad Prism software and IC₅₀ values were reported.

human TROP2-his protein [3] = biological target: T1, human TROP2-his protein; assay: capture ELISA, captured antibody, biotin human TROP2-his in solution, OD(450-630); remark: listed apart in the source
Method: Plates were washed once with wash buffer (PBS+0.05% v/v Tween-20, PBST) and then blocked with 200 μl/well blocking buffer (5% w/v non-fatty milk in PBST) for 2 hours at 37° C. […] Plates containing captured anti-TROP2 antibodies were incubated with biotin-labeled human TROP2-his protein (prepared in house, SEQ ID NO: 67, 56.7 ng/mL in 2.5% w/v non-fatty milk in PBST, 100 μl/well) for 40 minutes at 37° C., washed 4 times, and incubated with streptavidin conjugated HRP (1:10000 dilution in PBST, Jackson Immuno Research, Cat #016-030-084, 100 μl/well) for 40 minutes at 37° C. After a final wash, plates were incubated with 100 μl/well ELISA substrate TMB (Innoreagents, Cat #TMB-S-002) at room temperature. The reaction was stopped in 3-10 minutes at room temperature with 50 μl/well 1M H₂SO₄, and the absorbance of each well was read on a microplate reader using dual wavelength mode with 450 nm for TMB and 630 nm as the reference wavelength. The OD (450-630) values were plotted against antibody concentration. Data was analyzed using Graphpad Prism software and EC₅₀ values were reported.

human TROP2-his protein [4] = biological target: T1, human TROP2-his protein; assay: SPR Biacore T200, benchmark captured on Protein G chip, TROP2-his analyte
Method: (§2) Un-reacted moieties on the chip (biosensor) surface were blocked with ethanolamine. […] The antigen-antibody association kinetics was followed for 2 minutes and the dissociation kinetics was followed for 10 minutes. The association and dissociation curves were fit to a 1:1 Langmuir binding model using BIAcore evaluation software.

[5] = biological target: T2, cynomolgus TROP2-his protein (cynomolgus monkey, UniProt P09758 27-272 (human entry), limits assumed); assay: as above
T2 construct: no cleavage site is stated; also called Cynomolgus monkey TROP2-his protein; monkey TROP2
T2 chain: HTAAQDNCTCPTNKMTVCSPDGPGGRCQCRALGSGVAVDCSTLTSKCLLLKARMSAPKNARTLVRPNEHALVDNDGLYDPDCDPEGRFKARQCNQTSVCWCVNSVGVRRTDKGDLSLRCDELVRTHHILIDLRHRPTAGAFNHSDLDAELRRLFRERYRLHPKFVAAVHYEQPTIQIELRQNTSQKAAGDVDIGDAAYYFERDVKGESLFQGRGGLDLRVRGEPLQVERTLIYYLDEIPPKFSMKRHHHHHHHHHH
Method: as §2

human TROP2-his protein [6] = biological target: T1, human TROP2-his protein; assay: SPR Biacore, antibody captured on anti-human IgG CM5 chip, TROP2-his analyte
Method: as §2

human TROP2-his protein [7] = biological target: T1, human TROP2-his protein; assay: competitive ELISA: BM1 coated at 1 ug/mL, antibody premixed with biotin human TROP2-his; blocked: binding of TROP2-his to coated BM1; partial only: OD drops from about 1.45 to a plateau of about 0.8
Method: as §1

[8] = biological target: T3, full length human TROP2 on 293F-TROP2 cells (human, UniProt P09758 27-323); assay: FACS on 293F-TROP2 cells, MFI
T3 construct: also called 293F-TROP2 cells (clone ID #3A8); cell surface TROP2
T3 sequence: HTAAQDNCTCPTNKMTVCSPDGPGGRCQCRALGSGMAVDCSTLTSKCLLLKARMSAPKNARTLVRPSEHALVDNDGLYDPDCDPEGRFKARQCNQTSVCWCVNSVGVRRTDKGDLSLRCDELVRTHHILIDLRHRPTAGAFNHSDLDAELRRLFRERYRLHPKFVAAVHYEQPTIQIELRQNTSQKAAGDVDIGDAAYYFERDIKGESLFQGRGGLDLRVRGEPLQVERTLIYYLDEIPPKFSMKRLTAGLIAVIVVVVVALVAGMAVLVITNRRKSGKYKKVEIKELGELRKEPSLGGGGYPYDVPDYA

B1: mouse antibody A1E4F7D4 (antibody, V domains shown)
VH: QVQLQQSGAELAKPGTSVKMSCEASGYSFTTHWIHWMKQRPGQGLEWIGTIFPSNAYAVYNQKFRDRAIMTADRSSTTAYIQLTGLTSEDSAVYYCARASYFDYWGQGTTLTVSS
VL: DILLTQSPATLSVSPGERVTFSCRASQNIGTSIHWFQQRTTGSPRLLIKYASESISGIPSRFSGSGSGTDFTLHINSVESEDIAHYYCQHSHSWPFTFGSGTKLEIQ
notes: Mouse monoclonal IgG purified from hybridoma supernatant; also called Mouse A1E4F7D4
**Q.** With B1 as the binder, how does the EC50 (human TROP2-his protein [1]) read?
**A.** 147 pM

B2: mouse antibody A1H3C5H8E12 (antibody, V domains shown)
VH: QVQLQQSGAELVRPGTSVKMSCKAAGYTFTNYWIDWVKQRPGHGLEWIGNIFPGGFYTNYNEKFKGKATLTADTSSSTAYMQLSSLTSEDSAIYYCARGGVFDYWGQGTTLTVSS
VL: DILLTQSPAILSVSPGERVSFSCRASQSIGTSIHWYQQRTNGSPRLLIKYASESISGIPSRFSGSGSGTDFTLSINSVESEDIADYYCQQSNSWPYTFGGGTKLEIK
notes: Mouse monoclonal IgG purified from hybridoma supernatant
**Q.** B2 was tested. Which IC50 (human TROP2-his protein [2]) did it give?
**A.** 7000 pM

B3: benchmark (in house prepared sacituzumab) (antibody, human IgG1, kappa, V domains shown)
VH: SVQLQQSGSELKKPGASVKVSCKASGYTFTNYGMNWVKQAPGQGLKWMGWINTYTGEPTYTDDFKGRFAFSLDTSVSTAYLQISSLKADDTAVYFCARGGFGSSYWYFDVWGQGSLVTVSS
VL: DIQLTQSPSSLSASVGDRVSITCKASQDVSIAVAWYQQKPGKAPKLLIYSASYRYTGVPDRFSGSGSGTDFTLTISSLQPEDFAVYYCQQHYITPLTFGAGTKVEIKR
notes: also called BM; BM1
**Q.** What does the source list for B3?
**A.** EC50 (human TROP2-his protein [3]): 487 pM; Kd (human TROP2-his protein [4]): 868 pM; Kd [5]: 557 pM; Kd (human TROP2-his protein [6]): 385 pM

B4: mouse antibody C1B3B12D2 (antibody, V domains shown)
VH: QVQLQQSGPELVRPGTSVKMSCKAAGYTFTKFWIGWVKQRPGHGLEWIGNIYPGGAYINYNENFKGKATLTADTFSSTAYMQLNSLTSADSAIYYCAREGSSGYWGQGTTLTVSS
VL: DIVMTQSPSSLTVTAGEKVTLSCKCSQSLLNSGTQENYLTWYQQKPGQPPKMLIYWASIREPGVPDRFTGSGSGTDFTLTINNVQAEDLAVYYCQHDYSYPFTFGSGTKLEIK
notes: as for B2
**Q.** For B4, which IC50 (human TROP2-his protein [7]) is on record?
**A.** ~600 pM

B5: huA1E4F7D4-V16 (antibody, human IgG1, kappa, V domains shown)
VH: QVQLVQSGAEVKKPGASVKVSCKASGYSFTTHWIHWVRQAPGQGLEWIGTIFPSNAYAVYNQKFRDRATMTADTSISTAYIELSRLRSDDTAVYYCARASYFDYWGQGTTVTVSS
VL: EIVLTQSPATLSLSPGERATLSCRASQNIGTSIHWFQQKPGGAPRLLIKYASESISGIPSRFSGSGSGTDFTLTISSLEPEDFAVYYCQHSHSWPFTFGQGTKLEIKR
notes: Positions of the X residues are given in the claims; also called humanized antibody huA1E4F7D4-V16
**Q.** With B5 as the binder, how does the EC50 [8] read?
**A.** 362 pM
